Results as given in patent US20110263454A1, “Methods of Identifying Functional Characteristics of Promoters, Transcription Modifying Proteins and Transcription Modulating Agents” (Salk Institute for Biological Studies, priority 2008, published 2011).

Key:
[1] = test system: mUCP2 promoter; experiment: NHR-promoter luciferase screen, mUCP2 promoter; format: cell-based, mouse; conditions: for Luc. act., normalized to lacZ / Normalized Luc. act., normalized to control: mUCP2 promoter reporter, co-transfected HR, with or without its ligand; for Normalized Luc. act., normalized to control: relative to control; for luciferase activity normalized to lacZ activity and to a control, mUCP2: mUCP2 promoter-luciferase, CV-1 cells, NHR +/- ligand, control = 1.00
Procedure, shortened: (§1)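 CV-1 cells were co-transfected with 50 ng NHR (homodimer or NHR/RXR heterodimer), 100 ng promoter-luciferase construct and 50 ng LacZ. Luciferase was normalized to LacZ and to a no-NHR/no-ligand control.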

[2] = test system: hCAR promoter; experiment: NHR-promoter luciferase screen, hCAR promoter; format: cell-based, human; conditions: for luciferase activity normalized to lacZ activity and to a control, hCAR: hCAR promoter-luciferase, CV-1 cells, NHR +/- ligand, control = 1.00; for Luc. act., normalized to lacZ / Normalized Luc. act., normalized to control: hCAR promoter, HR/ligand component
Procedure, shortened: as §1

[3] = test system: mCAR promoter; experiment: NHR-promoter luciferase screen, mCAR promoter; format: cell-based, mouse; conditions: for luciferase activity normalized to lacZ activity and to a control, mCAR: mCAR promoter-luciferase, CV-1 cells, NHR +/- ligand, control = 1.00; for Luc. act., normalized to lacZ / Normalized Luc. act., normalized to control: mCAR promoter, HR/ligand component
Procedure, shortened: as §1

[4] = test system: Bmal1 promoter; experiment: NHR-promoter luciferase screen, Bmal1 promoter; format: cell-based, mouse; conditions: for Luc. act., normalized to lacZ / Normalized Luc. act., normalized to control: Bmal1 promoter, HR component without or with ligand; for mBmal1 promoter reporter activity: transcription factor +/- ligand, control = 1.00
Procedure, shortened: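 Luciferase activity was measured 48 h after transfection, normalized to LacZ and then to a control lacking NHR or ligand. CV-1 cells carried 100 ng Bmal1 reporter, 50 ng NHR construct and 50 ng LacZ.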

[5] = test system: mAdiponectin promoter; experiment: NHR-promoter luciferase screen, mAdiponectin promoter; format: cell-based, mouse; conditions: for Luc. act., normalized to lacZ / Normalized Luc. act., normalized to control: Adiponectin, HR component without or with its ligand; for mAdiponectin promoter reporter activity: transcription factor +/- ligand, control = 1.00
Procedure, shortened: as §1

[6] = test system: mNPY promoter; experiment: NHR-promoter luciferase screen, mNPY promoter; format: cell-based, mouse; conditions: for Results of assays of transcription factor (+/- ligand) with mNPY: Table 6d, luciferase activity relative to control (control = 1.00); for Luc. act., normalized to lacZ / Normalized Luc. act., normalized to control: mNPY promoter, HR component with or without ligand; for Normalized Luc. act., normalized to control: relative to control
Procedure, shortened: as §1

B1: RXRg: Retinoic X Receptor γ (NR2B3), cDNA driver (protein, UniProt P48443 1-463, looked up)
Retinoic acid receptor …: MYGNYSHFMKFPAGYGGSPGHTGSTSMSPSAALSTGKPMDSHPSYTDTPVSAPRTLSAVGTPLNALGSPYRVITSAMGPPSGALAAPPGINLVAPPSSQLNVVNSVSSSEDIKPLPGLPGIGNMNYPSTSPGSLVKHICAICGDRSSGKHYGVYSCEGCKGFFKRTIRKDLIYTCRDNKDCLIDKRQRNRCQYCRYQKCLVMGMKREAVQEERQRSRERAESEAECATSGHEDMPVERILEAELAVEPKTESYGDMNMENSTNDPVTNICHAADKQLFTLVEWAKRIPHFSDLTLEDQVILLRAGWNELLIASFSHRSVSVQDGILLATGLHVHRSSAHSAGVGSIFDRVLTELVSKMKDMQMDKSELGCLRAIVLFNPDAKGLSNPSEVETLREKVYATLEAYTKQKYPEQPGRFAKLLLRLPALRSIGLKCLEHLFFFKLIGDTPIDTFLMEMLETPLQIT
With B1 the “Luc. act., normalized to lacZ” value [1] was 144.4, the “Normalized Luc. act., normalized to control” value [1] was 1.3 and the “luciferase activity normalized to lacZ activity and to a control, mUCP2” value (from here on “luciferase activity normalized … mUCP2”) [1] was 1.31. The “luciferase activity normalized to lacZ activity and to a control, hCAR” value (shortened to “luciferase activity normalized … hCAR”) [2] was 0.93, the “Luc. act., normalized to lacZ” value [2] was 29.3 and the “Normalized Luc. act., normalized to control” value [2] was 0.9. For the same molecule, the “luciferase activity normalized to lacZ activity and to a control, mCAR” value (shortened to “luciferase activity normalized … mCAR”) [3] was 1.25, the “Luc. act., normalized to lacZ” value [3] was 47.5 and the “Normalized Luc. act., normalized to control” value [3] was 1.2. For the same molecule, the “Luc. act., normalized to lacZ” value [4] was 12.7, the “Normalized Luc. act., normalized to control” value [4] was 0.8 and the “mBmal1 promoter reporter activity” value [4] was 0.81. The “Luc. act., normalized to lacZ” value [5] was 69.4, the “Normalized Luc. act., normalized to control” value [5] was 1.1 and the “mAdiponectin promoter reporter activity” value [5] was 1.10. The “Results of assays of transcription factor (+/- ligand) with mNPY” value (shortened to “Results”) [6] was 0.97, the “Luc. act., normalized to lacZ” value [6] was 81.2 and the “Normalized Luc. act., normalized to control” value [6] was 1.0.

B2: RORb: RAR-related Orphan Receptor β (NR1F2), cDNA driver (protein, UniProt Q92753 1-470, looked up)
Nuclear receptor ROR-beta: MCENQLKTKADATAQIEVIPCKICGDKSSGIHYGVITCEGCKGFFRRSQQNNASYSCPRQRNCLIDRTNRNRCQHCRLQKCLALGMSRDAVKFGRMSKKQRDSLYAEVQKHQQRLQEQRQQQSGEAEALARVYSSSISNGLSNLNNETSGTYANGHVIDLPKSEGYYNVDSGQPSPDQSGLDMTGIKQIKQEPIYDLTSVPNLFTYSSFNNGQLAPGITMTEIDRIAQNIIKSHLETCQYTMEELHQLAWQTHTYEEIKAYQSKSREALWQQCAIQITHAIQYVVEFAKRITGFMELCQNDQILLLKSGCLEVVLVRMCRAFNPLNNTVLFEGKYGGMQMFKALGSDDLVNEAFDFAKNLCSLQLTEEEIALFSSAVLISPDRAWLIEPRKVQKLQEKIYFALQHVIQKNHLDDETLAKLIAKIPTITAVCNLHGEKLQVFKQSHPEIVNTLFPPLYKELFNPDCATGCK
B2 was tested, and the “Luc. act., normalized to lacZ” value [1] was 176.2, the “Normalized Luc. act., normalized to control” value [1] was 1.6 and the “luciferase activity normalized … mUCP2” value [1] was 1.60. For the same molecule, the “luciferase activity normalized … hCAR” value [2] was 1.05, the “Luc. act., normalized to lacZ” value [2] was 33.3 and the “Normalized Luc. act., normalized to control” value [2] was 1.1. For the same molecule, the “luciferase activity normalized … mCAR” value [3] was 1.15, the “Luc. act., normalized to lacZ” value [3] was 43.7 and the “Normalized Luc. act., normalized to control” value [3] was 1.1. The “Luc. act., normalized to lacZ” value [4] was 16.5, the “Normalized Luc. act., normalized to control” value [4] was 1.1 and the “mBmal1 promoter reporter activity” value [4] was 1.06. For the same molecule, the “Luc. act., normalized to lacZ” value [5] was 82.7, the “Normalized Luc. act., normalized to control” value [5] was 1.3 and the “mAdiponectin promoter reporter activity” value [5] was 1.32. For the same molecule, the “Results” value [6] was 1.12, the “Luc. act., normalized to lacZ” value [6] was 94.2 and the “Normalized Luc. act., normalized to control” value [6] was 1.1.

B3: HNF4g: Hepatocyte Nuclear Factor γ (NR2A2), cDNA driver (protein, UniProt Q14541 1-408, looked up)
Hepatocyte nuclear factor …: MNTTDNGVNCLCAICGDRATGKHYGASSCDGCKGFFRRSIRKSHVYSCRFSRQCVVDKDKRNQCRYCRLRKCFRAGMKKEAVQNERDRISTRRSTFDGSNIPSINTLAQAEVRSRQISVSSPGSSTDINVKKIASIGDVCESMKQQLLVLVEWAKYIPAFCELPLDDQVALLRAHAGEHLLLGATKRSMMYKDILLLGNNYVIHRNSCEVEISRVANRVLDELVRPFQEIQIDDNEYACLKAIVFFDPDAKGLSDPVKIKNMRFQVQIGLEDYINDRQYDSRGRFGELLLLLPTLQSITWQMIEQIQFVKLFGMVKIDNLLQEMLLGGASNDGSHLHHPMHPHLSQDPLTGQTILLGPMSTLVHADQISTPETPLPSPPQGSGQEQYKIAANQASVISHQHLSKQKQL
B3 was tested, and the “Luc. act., normalized to lacZ” value [1] was 114.8, the “Normalized Luc. act., normalized to control” value [1] was 1.0 and the “luciferase activity normalized … mUCP2” value [1] was 1.04. The “luciferase activity normalized … hCAR” value [2] was 0.81, the “Luc. act., normalized to lacZ” value [2] was 25.5 and the “Normalized Luc. act., normalized to control” value [2] was 0.8. The “luciferase activity normalized … mCAR” value [3] was 1.43, the “Luc. act., normalized to lacZ” value [3] was 54.5 and the “Normalized Luc. act., normalized to control” value [3] was 1.4. For the same molecule, the “Luc. act., normalized to lacZ” value [4] was 11.5, the “Normalized Luc. act., normalized to control” value [4] was 0.7 and the “mBmal1 promoter reporter activity” value [4] was 0.73. The “Luc. act., normalized to lacZ” value [5] was 45.4, the “Normalized Luc. act., normalized to control” value [5] was 0.7 and the “mAdiponectin promoter reporter activity” value [5] was 0.72. The “Results” value [6] was 0.96, the “Luc. act., normalized to lacZ” value [6] was 80.7 and the “Normalized Luc. act., normalized to control” value [6] was 1.0.

B4: TR2: Testicular Orphan Nuclear Receptor 2 (NR2C1), cDNA driver (protein, UniProt P13056 1-603, looked up)
Nuclear receptor subfamily 2 …: MATIEEIAHQIIEQQMGEIVTEQQTGQKIQIVTALDHNTQGKQFILTNHDGSTPSKVILARQDSTPGKVFLTTPDAAGVNQLFFTTPDLSAQHLQLLTDNSPDQGPNKVFDLCVVCGDKASGRHYGAVTCEGCKGFFKRSIRKNLVYSCRGSKDCIINKHHRNRCQYCRLQRCIAFGMKQDSVQCERKPIEVSREKSSNCAASTEKIYIRKDLRSPLTATPTFVTDSESTRSTGLLDSGMFMNIHPSGVKTESAVLMTSDKAESCQGDLSTLANVVTSLANLGKTKDLSQNSNEMSMIESLSNDDTSLCEFQEMQTNGDVSRAFDTLAKALNPGESTACQSSVAGMEGSVHLITGDSSINYTEKEGPLLSDSHVAFRLTMPSPMPEYLNVHYIGESASRLLFLSMHWALSIPSFQALGQENSISLVKAYWNELFTLGLAQCWQVMNVATILATFVNCLHNSLQQDKMSTERRKLLMEHIFKLQEFCNSMVKLCIDGYEYAYLKAIVLFSPDHPSLENMEQIEKFQEKAYVEFQDYITKTYPDDTYRLSRLLLRLPALRLMNATITEELFFKGLIGNIRIDSVIPHILKMEPADYNSQIIGHSI
B4 was tested, and the “Luc. act., normalized to lacZ” value [1] was 208.9, the “Normalized Luc. act., normalized to control” value [1] was 1.9 and the “luciferase activity normalized … mUCP2” value [1] was 1.90. The “luciferase activity normalized … hCAR” value [2] was 2.30, the “Luc. act., normalized to lacZ” value [2] was 72.7 and the “Normalized Luc. act., normalized to control” value [2] was 2.3. For the same molecule, the “luciferase activity normalized … mCAR” value [3] was 0.81, the “Luc. act., normalized to lacZ” value [3] was 31.0 and the “Normalized Luc. act., normalized to control” value [3] was 0.8. The “Luc. act., normalized to lacZ” value [4] was 10.8, the “Normalized Luc. act., normalized to control” value [4] was 0.7 and the “mBmal1 promoter reporter activity” value [4] was 0.69. For the same molecule, the “Luc. act., normalized to lacZ” value [5] was 37.5, the “Normalized Luc. act., normalized to control” value [5] was 0.6 and the “mAdiponectin promoter reporter activity” value [5] was 0.60. For the same molecule, the “Results” value [6] was 1.27, the “Luc. act., normalized to lacZ” value [6] was 106.6 and the “Normalized Luc. act., normalized to control” value [6] was 1.3.
